We go through two substances from PMC10847126.

The target of assay [1] is RGA5-HMA (labelled, MST) (rice) (UniProt F7J0N2). Briefly: MST; […]; 20 mM PBS, 150 mM NaCl, 0.05% Tween-20, pH 7.4; […].
Assay [2] concerns the target RGA5-HMA5 (recombinant, MST and HDX-MS) (rice) (UniProt F7J0N2). Described as above.

What is called Kd is the free concentration of one partner at which half of the binding sites on the other are occupied at equilibrium, for simple one-to-one binding. In assay [1], “AVR-Pia (recombinant, MST) (from UniProt B9WZW9) (natural protein; other documents disagree on this pair)” gave a Kd of 35 µM.

For the substance “AVR-PikD (recombinant, MST and HDX-MS) (natural protein)”, in assay [2], the Kd was found to be 12 µM.
